Source: paper PMC5079630, “STAT2 Is a Pervasive Cytokine Regulator due to Its Inhibition of STAT1 in Multiple Signaling Pathways” (PLoS Biology, 2016)
One block for each binder: values may come before it.

Molecular target: T1, STAT1 N domain (aminoterminal domain), recombinant
T1 chain: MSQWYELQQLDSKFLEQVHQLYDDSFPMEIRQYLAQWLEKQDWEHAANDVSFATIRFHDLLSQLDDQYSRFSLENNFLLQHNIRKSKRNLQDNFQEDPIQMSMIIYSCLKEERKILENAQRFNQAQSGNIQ
Experiment: AUC; sedimentation equilibrium of purified recombinant N domains, homo- and heterotypic associations (dimer to monomers); STAT1 N domain and mEGFP-tagged STAT2 N domain at final equimolar concentrations of 2.5, 10, and 40 μM
Conditions: both partners purified

fold stronger than STAT2 N domain homodimers: ~50 fold
B1: STAT1 N domain (aminoterminal domain), recombinant (domain or fragment)
chain: T1 chain
modifications: limits not printed (S1 Text/ref. 22); N domain taken up to the start of the conventional STAT1 core fragment (132-713); Strep-tag omitted / limits not printed (S1 Text/ref. 22); N domain taken up to …

fold stronger than STAT1 N domain homodimers: ≥ 1000 fold
B2: STAT2 N domain (aminoterminal domain), recombinant, mEGFP-tagged (domain or fragment)
chain: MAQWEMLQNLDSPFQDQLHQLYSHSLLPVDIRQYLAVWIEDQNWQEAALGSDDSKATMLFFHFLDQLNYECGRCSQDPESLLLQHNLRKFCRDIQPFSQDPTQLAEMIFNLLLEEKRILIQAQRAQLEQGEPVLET
modifications: limits not given; N domain taken up to the start of the core region (P52630 region from 138), homologous to STAT1 1-131; mEGFP and Strep-tag omitted / limits not printed (S1 Text/ref. 22); N domain
